In paper PMC8901805 one finds EC75 data, which are given here for one substance.

The test deals with FITC-BIM SAHBA2. The experiment in a line: fluorescence polarisation; direct binding: FITC-BIM SAHBA2 (50 nM) with serial dilutions of full-length BAX, read at 20 min. A general note: Polarisation of emitted light reports the rotation of a fluorescent probe.

As to “Human, recombinant and tagless BAX (from UniProt Q07812 1-192) (natural protein)”, the EC75 (in general, the concentration needed for an effect of 75%) was determined as 0.5 µM.
